Measurements from patent JP2019147786A (dated 2019).

T1: 可溶性ヒトgp130受容体 (soluble human gp130 receptor, extracellular region with six histidines, made in CHO DG44 cells) (human, UniProt P40189 23-619)
T1 construct: The stated range 1-619 begins at Met 1 and so holds the native signal peptide; also called 可溶性ヒトgp130受容体タンパク質; ヒトgp130受容体
T1 sequence: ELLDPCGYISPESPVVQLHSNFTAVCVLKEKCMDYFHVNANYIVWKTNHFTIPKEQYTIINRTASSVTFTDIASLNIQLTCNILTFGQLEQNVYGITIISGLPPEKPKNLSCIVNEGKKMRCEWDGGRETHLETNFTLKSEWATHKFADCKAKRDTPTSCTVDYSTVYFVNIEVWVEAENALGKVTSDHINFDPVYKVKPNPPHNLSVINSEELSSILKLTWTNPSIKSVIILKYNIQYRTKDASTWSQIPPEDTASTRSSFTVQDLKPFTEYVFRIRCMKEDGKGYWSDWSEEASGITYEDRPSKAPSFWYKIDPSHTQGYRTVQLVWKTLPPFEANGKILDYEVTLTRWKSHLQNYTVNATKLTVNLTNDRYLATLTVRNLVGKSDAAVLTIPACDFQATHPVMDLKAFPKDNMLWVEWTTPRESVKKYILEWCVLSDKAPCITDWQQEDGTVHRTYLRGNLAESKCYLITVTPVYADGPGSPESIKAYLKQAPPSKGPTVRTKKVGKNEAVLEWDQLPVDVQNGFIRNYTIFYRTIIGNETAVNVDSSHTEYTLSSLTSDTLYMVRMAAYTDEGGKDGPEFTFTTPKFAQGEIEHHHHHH


Experiments:
[1] = target: T1, 可溶性ヒトgp130受容体 (soluble human gp130 …); assay: SPR (Biacore T200), gp130 amine-coupled on CM5 (235.2 RU), Fab as analyte
[2] = target: T1, 可溶性ヒトgp130受容体 (soluble human gp130 …); assay: SPR (Biacore T200), gp130 amine-coupled on CM5 (376 RU), full-length IgG as analyte
[3] = target: T1, 可溶性ヒトgp130受容体 (soluble human gp130 …); assay: ELISA, soluble gp130 coated on the plate, hybridoma supernatant, anti-mouse HRP
[4] = target: T1, 可溶性ヒトgp130受容体 (soluble human gp130 …); assay: SPR (Biacore T200), gp130 amine-coupled on CM5 (352 RU), Fab as analyte, 25 C

Kd [1] | koff [1] | kon [1] | Kd [4] | koff [4] | kon [4] | Binder | other results
0.594 nM | 7.05e-05 s⁻¹ | 119000 M⁻¹ s⁻¹ | – | – | – | hAH1hAL2 (humanized Fab, VH SEQ ID NO 25, VL SEQ ID NO 77, from pUC-Fab-hAH1hAL2) (Fab, V domains shown) VH: QVQLQQPGAELVQPGTSVRLSCKASGYTFTDYNMDWVKQRPGQGLEWIGDINSHSGGIIYNQKFKDKATLTVDKSSSTAYMQLSSLTSEDSAVYYCARTYYVYGHFFDYWGQGTLVTVSA VL: ELVLTQSPGTLSLSAGERATLSCNVSSSVTSMYWYQQKPGKAPKLLIYLTSNLASGVPSRFSGSGSGTQFSLKINNLQPEDFGSYYCQQWSTNPLTFGAGTKLDLKR | –
– | – | – | 0.46 nM | 8.21e-05 s⁻¹ | 178000 M⁻¹ s⁻¹ | hAH1mAL (Fab: humanized VH hAH1 with the mouse L chain of antibody A, from pUC-Fab-hAH1mAL) (Fab, V domains shown) VH: QVQLQQPGAELVQPGTSVRLSCKASGYTFTDYNMDWVKQRPGQGLEWIGDINSHSGGIIYNQKFKDKATLTVDKSSSTAYMQLSSLTSEDSAVYYCARTYYVYGHFFDYWGQGTLVTVSA VL: QSVLTQSPAFISASPGEKVTMTCNVSSSVTSMYWYQQKPGSSPKPWIYLTSNLASGVPPRFSGSGSGTSYSLTISSLEAEDAATYYCQQWSTNPLTFGAGTKLELKR | –

The remaining lines, values behind:

Binder | Kd [1] | koff [1] | kon [1] | Kd [4] | koff [4] | kon [4] | other results
hAH1hAL1 (humanized Fab, VH SEQ ID NO 25, VL SEQ ID NO 76, from pUC-Fab-hAH1hAL1) (Fab, V domains shown) VH: QVQLQQPGAELVQPGTSVRLSCKASGYTFTDYNMDWVKQRPGQGLEWIGDINSHSGGIIYNQKFKDKATLTVDKSSSTAYMQLSSLTSEDSAVYYCARTYYVYGHFFDYWGQGTLVTVSA VL: DIQMTQSPSSLSASVGDRVTITCNVSSSVTSMYWYQQKQGKSPQLLVYLTSNLASGVPARFSGSGSGTEFTLTISSLQPDDFATYYCQQWSTNPLTFGAGTKLDLKR | 0.218 nM | 5.6e-05 s⁻¹ | 257000 M⁻¹ s⁻¹ | – | – | – | –
hAH1hAL3 (full-length humanized anti-gp130 receptor antibody, H chain hAH1, L chain hAL3, made in CHO DG44 cells) (antibody, human IgG1, kappa, V domains shown, Human IgG1, kappa constant regions; also called ヒト化抗体hAH1hAL3) VH: QVQLQQPGAELVQPGTSVRLSCKASGYTFTDYNMDWVKQRPGQGLEWIGDINSHSGGIIYNQKFKDKATLTVDKSSSTAYMQLSSLTSEDSAVYYCARTYYVYGHFFDYWGQGTLVTVSA VL: DIQMTQSPSSLSASVGDRVTITCNVSSSVTSMYWFQQRPGQAPKVLIYLTSNLASGVPSRFSGSGSGTEFTLTISSLQPDDFATYYCQQWSTNPLTFGQGTKVEIKR | – | – | – | – | – | – | Kd [2]: 0.585 nM; koff [2]: 7.25e-05 s⁻¹; kon [2]: 124000 M⁻¹ s⁻¹
抗体A (mouse anti-human gp130 receptor monoclonal antibody from hybridoma) (antibody, mouse IgG1, kappa, V domains shown, also called マウス抗体A; antibody A) VH: EVLLQQSGPELVKPGASVKIPCKASGYTFTDYNMDWVKQSHGKSLEWIGDINSHSGGIIYNQKFKDKAILTVDKSSSTAYMELRSLTSEDTAVYYCARTYYVYGHFFDYWGQGTTLTVSS VL: QSVLTQSPAFISASPGEKVTMTCNVSSSVTSMYWYQQKPGSSPKPWIYLTSNLASGVPPRFSGSGSGTSYSLTISSLEAEDAATYYCQQWSTNPLTFGAGTKLELKR | – | – | – | – | – | – | binding result [3]: binds
小型化マウス抗体A (Fab of mouse antibody A, from pUC-Fab-mAHmAL, E. coli) (Fab, V domains shown) VH: EVLLQQSGPELVKPGASVKIPCKASGYTFTDYNMDWVKQSHGKSLEWIGDINSHSGGIIYNQKFKDKAILTVDKSSSTAYMELRSLTSEDTAVYYCARTYYVYGHFFDYWGQGTTLTVSS VL: QSVLTQSPAFISASPGEKVTMTCNVSSSVTSMYWYQQKPGSSPKPWIYLTSNLASGVPPRFSGSGSGTSYSLTISSLEAEDAATYYCQQWSTNPLTFGAGTKLELKR | – | – | – | 0.598 nM | 8.42e-05 s⁻¹ | 141000 M⁻¹ s⁻¹ | –
